This note sets out measurements from the nanobody polyreactivity screen of Harvey et al. (2022).

The nature of the series: yeast display, Sf9 membrane polyspecificity reagent, FACS + sequencing; frameworks hold sequencing errors. A digest of the protocol: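 Synthetic nanobody libraries on Saccharomyces cerevisiae BJ5465 were galactose-induced for 36–48 hours, stained 1 hour at 4 °C with 10% biotinylated, detergent-solubilized Sf9 membrane reagent and enriched on streptavidin microbeads. FACS then separated cells into low and high (top ~1%) gates by anti-HA (expression) and streptavidin (reagent binding) fluorescence. Genes were colony-PCR amplified, MiSeq 2 × 250 sequenced and CDR-length filtered. A clone's polyreactivity label is that of its gate of origin.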
As for “QVQLGESGGGLVQAGGSLRLSCAASGGTYTHYGMGWYRQATGKERELVAAITWTASSTYYADSVKGRFTISRDNAKNTVYLQMNSLKPEDTAVYYCATSYYYWGHTYDYWGQGTQVTVSS”, the “polyreactivity (PSR sort gate)” value is on record as “low polyreactivity”. For “QVQLGESGGGLVQAGGSLRLSCAASGIIFRRYAMGWYRQAPGKERELVAVISSGGSTNYADSVKGRFTISRDNAKNTVYLQMNSLKPEDTAVYYCAAPSQSRGYYYWGQGTQVTVSS”, the “polyreactivity (PSR sort gate)” value was “high polyreactivity”. Regarding “QVQLGESGGGLVQAGGSLRLSCAASGIIIFLYAMGWYRPAPGKEREFVAAINYSSGSTYYADSVKGRFTISRDNAKNTVYLQMNSLKPEDTAVYYCAADPVHRYPGTGGYWGQGTQVTVSS”, the “polyreactivity (PSR sort gate)” value is recorded as “low polyreactivity”. For “QVQLGESGGGLVQAGGSLRLSCAASGLTFPVYPMGWYRQAPGKEREFVTAITYNGGRTYYADSVKGRFTISRDNAKNTVYLQMNSLKPEDTAVYYCNAARSRGANLVPPYRLYYWGQGTQVTVSS” the value was “low polyreactivity”. In the case of “QVQLGESGGGLVQAGGSLRLSCAASGRIFAYYTMGWYRQAPGKERELVAAITSGGSTYYADSVKGRFTISRDYAKNTVYLQMNSLKPEATAVYYCAAGWYTPVYLYYYWGQGTQVTVSS”, the “polyreactivity (PSR sort gate)” value is reported as “high polyreactivity”. As for “QVQLGESGGGLVQAGGSLRLSCAASGRIIPYYAMGWYRQAPGKERELVAAISLSGGSTYYADSVKGRFTISRDIAKNTVYLQMNSLKPEDTAVYYCNAVASTYGYYWYPGLGYDYWGQGTQVTVSS”, the entry is “low polyreactivity”; as for “QVQLGESGGGLVQAGGSLRLSCAASGRILAKYAMGWSRQAPWKEREFVAAISYSGGSTYYADSVKGRFTISRDNAKNTVYLQMNSLKPEDTAVYYCAARYTFDRWKFGYWGQGTQVTVSS”, “high polyreactivity”. Consider “QVQLGESGGGLVQAGGSLRLSCAASGRILSVYVMGWYRQAPGKERELVAAIRRGGYTYYADSVKGRFTISRDNAKNTVYLQMNSLKQEDTAVYYCNARQRPPPYYYWGQGTQLTVSS”, for which the “polyreactivity (PSR sort gate)” value is “high polyreactivity”. As to “QVQLGESGGGLVQAGGSLRLSCAASGRTFIYDAMGWYRQAPGKERELVAGISRNGGRTYYADSVKGRFTISRDNAKNTVYLKMNSLKPEDTAVYYCIARTYSYRGYNYWGQGTQVTVSS”, the “polyreactivity (PSR sort gate)” value is reported as “high polyreactivity”.

As for “QVQLGESGGGLVQAGGSLRLSCAASGSIFNYYTMGWYRQAPGKERELVAAISSSGGSTYYADSVKGRFTISRDNAKNTVYLQMNSRKPEDTAVYYCAALGRYFTSAGGYWGQGTQVTVSS”, the “polyreactivity (PSR sort gate)” value was “high polyreactivity”.

Turning to “QVQLGESGGGLVQAGGSLRLSCAASGSIFSNYAMGWYRQAPWKERELVATIRLSGGSTYYADSVKGRFTISRDNAKNTVYLQMNSLKPEDTAVYDCAARIHWPYWYARLDYWGQVTQVTVSS”, the “polyreactivity (PSR sort gate)” value is reported as “high polyreactivity”. In the case of “QVQLGESGGGLVQAGGSLRLSCAASGSIFTGNAMGWYRQAPGKERELVAAITNGGITNYADSVKRRFTISRDNAKNTFYLQMNSLKPEDTAVYYCAADYVDFYSFRRFDYWGQGSQVTVSS”, the “polyreactivity (PSR sort gate)” value is given as “low polyreactivity”. As for “QVQLGESGGGLVQAGGSLRLSCAASGSTFGGYAMGWYRQAPGKERELVAAISSSGTSTYYADSVKGRFTISRDNAKNTVYLQMNSLKPDDTAVYYCATDFSFFSRFDYWGQGTQVTVSS”, the entry is “low polyreactivity”. As for “QVQLGESGGGLVQAGGSLRLSCAASGSTFPRNAMGWYRQATGKERELVATITSSGGGTYYADSVKGRFTISRDNAKITVYLQMNSLKPEHTAVYYCNADGPAGDAFDYWGQGTQVTVSS”, the entry is “low polyreactivity”; as for “QVQLGESGGGLVQAGGSLRLSCAASGSTLRNNAMGWYRQAPGKERELVASIRTRGGSTRYADSVKGRFTISRDNAKNTVYLQMNSLKPEDTAVYYCAAQYYGKGWQLDYWGQGSQVTVSS”, “high polyreactivity”. Turning to “QVQLGESGGGLVQAGGSLRLSCAPSGNNFVGNAMGWCRQAAGKERELVAAIRRSGGTTYYADSVKGRFTISRDNAKNTVYLQMNSLKPEDTAVYYCAASRPYQGDYWGQGTQVTVSS”, the “polyreactivity (PSR sort gate)” value is recorded as “low polyreactivity”. For the sequence “QVQLGESGGGLVQAGGSLRLTCAASGGTFKGYAMGWYRQAPGKERELVAAISWSGVRTYYADSVKGRFTISRDNAKNTVYLQMNSLKPEDTAVYYCAASWLLRMGYWGQGTQVTVSS”, the “polyreactivity (PSR sort gate)” value is given as “high polyreactivity”. As for “QVQLGESGGGLVQAGGSLSLSCAASGITLHNYAMGWYRQAPGKERELVAAISRRGGNTYYADSVKGRFTISRDNAKNTVYLQMNSLIPEDTAVSYCAAYYHGRMDYWGQGTQVTVSS”, the entry is “high polyreactivity”. For “QVQLGESGGGLVQEGGSLRLSCAASGRILSRYAKGWYRQAPGKERELVAAISRSGGSTYYADSVKGRFTISRDNAKNTVYLQMNSLKPEDTAVYYWARDVSLSTGYDYWGQGTQVTVSS” the value was “high polyreactivity”. For “QVQLGESVVCLDQAGVSLPLSCAASGFTFKYYTMRWFRQAPGKERELVAAISRRGGSTYYADSVKGRFTISRDNAKNTVYLQMKSLKPEDTAVYYCAADYRYVSTPYGYDYWGQGTQVTVSS” the value was “high polyreactivity”. With “QVQLGETRGGLVQAGGSLRLSCAASASIFAPYAMGGYRQAPGKERELVAAITWSGDSTYYADSVKGRFTISRDNAKYTVYLQMNSLKPEDTAVYYCATEEVYGQGNYWGQGTQVTVSS”, the “polyreactivity (PSR sort gate)” value is reported as “low polyreactivity”. On to “QVQLHESGGGLLQAGGGLRLSCAASGSISSTGFMCWYRQAPGKEREPVAAIAPGTTTYYADSVKGRFTISRDNAKNSVYLQKNSLRPEDTAVYYCAVFTDNRVAFLYWGQGTQVTVSS”, for which the “polyreactivity (PSR sort gate)” value is recorded as “low polyreactivity”. For “QVQLHESGGGLVQAGGSLRLSCAASGTISVTYNMGWYRQAPGKEREFVAGNSTGATTNYADSVKGRFTISRDNAKKTVYLQMNSLKPEDTAVYYCAAHIYRQDHFYYWGQGTQVTVSS”, the “polyreactivity (PSR sort gate)” value is recorded as “low polyreactivity”. As for “QVQLHESGGGLVQAGGSLRQSCAASGTISYAGPMGWYRKAPGKEREFVAGIGVGSNTNYADSVKGRYTIIRDNAKNTVYLQMNSLKPEDTAVNYCAVGGYAPLGRPYWGLGTQVTVSS”, the entry is “low polyreactivity”; as for “QVQLHESGGGLVQPGGGLRLSCAPSGSISSTGFMGWNRKAPGKEREPVAAIAPGTTTYYADSVKGRFTISRDNAKNTVYLQMNSLRPEDTAVYYCAVFTDNRVAFLYWGQGTQVTVSS”, “low polyreactivity”; as for “QVQLHESGGVQAGGSLRLSCAASGYISRSDVMGWYRQAPGKERELVATINNGTITYYADSVKGRFTISRDNAKNTVYLQMNSLKPEDTAVHYCAVVQSDTDSLYYWGQGTQVTVSS”, “low polyreactivity”. As for “QVQLHESGVGLVQAGGSLRLSCASSGTISYAGPMGWYRQAPGKEREFVAGIGVGSNTNYADSVKGRYTIIRDNAKNTVYLQMNSLKPEDTAVYYCAVGGYAPLGRPYWGQGTQVTVSS”, the “polyreactivity (PSR sort gate)” value is reported as “low polyreactivity”. As for “QVQLHESVGRLVQEGGGLRVSCAASGSISSTGFMGWSRQAPGKEGEPVAAIAPGTTTYYADSVKGRFTISRDNAKNTVYLQMNCLRPEDTAVYYCAVYTDNRVAFLYWGQGTQVTVSS”, the entry is “low polyreactivity”; as for “QVQLIESGGGLVQAGGSLRLSCAASGIIFYDYAMGWYRQAPGKERELVATITSGGSTNYADSVKGRFTISRDNAKNTVYLQMNSLKPEDTAVYYCAAGRGLILGGVYGYDYWGQGTQVTVSS”, “low polyreactivity”; as for “QVQLIESGGGLVQAGGSLRLSCAASGYTFGAYAMGWYRQAPGKERELVAGITFIGGSTYYADSVKGRFTISRDNAKNTVYLQMNSLKPEDTAVYYCAAPIAFGYRGTVAKYGYWGQGTQVTVSS”, “low polyreactivity”. For “QVQLLDSGGGLVQAGGSLRLSCAASGRTIYYYAMGWYRQAPGKEREFVAAIYWHGGSTYYAESVKGRFTISRDNAKNTVYFQMNSLKPEDTAVYYCAAERYDRVGFDYWGQGTQVTVSS” the value was “low polyreactivity”. “QVQLLESGAGLVQAGGSLRLSCADSGTFYGYAMGWYRQAPGKERELVAAITWSGGSTYYADSVKGRFTISRDNSKNTVYLQMISLKPEDTAVYYCAASLYSGYDSWGQGTQVTVSS”: the “polyreactivity (PSR sort gate)” value is listed as “low polyreactivity”. For “QVQLLESGGGIVQAGGSLRLSCAASGRIFVPYAMGWYRQAPGKERELVAAISGRGDSTYYADSVKGRFTISRDNAKNSVYLQMNSLKPEDTAVYYCAKYRPYYTPSYWSRYDYWGQGTQVSVSS” the value was “high polyreactivity”; for “QVQLLESGGGIVQAGGSLRLSCAASGSTYVIYDMVWYRQAPGKERELVAVITIIGGSTYYADSVKGRFTISRDNAKNTVYLQMISLKPEDTAVYYCNANVIQDYPNYDYWGQGTLVTVSS”, “low polyreactivity”. As for “QVQLLESGGGLDQAGGSLRLSSAASGRTFGRNAMGWYRQAPGERELVAVISRGGSTYYADSVKGRFTISRDNAKNTVYLQMNSLKPEDTAVYYCNADTVYTRTAPYDYWGQGTQVTVSS”, the entry is “low polyreactivity”; as for “QVQLLESGGGLFQAGGSLRLSCAASGLTFYRYAMGWYRKAPGKERELVAAISFSGGSTYYADSVKGRFTISRDNAKNTVYLQMNSLKPEDTAVYYCAASSYPYGYDYWGQGTQVTVSS”, “high polyreactivity”. For “QVQLLESGGGLVKAGGSLRLSCAASGFTFYRYAMGWYRQAPGKERELVATINYSGGGTYYADSVKGRFTISRDNAKHTVYLQMNSLKPEDTAVYDCAAEDFDYAVLYDYWGQGTQVTVSS” the value was “high polyreactivity”; for “QVQLLESGGGLVPAGGSLRLSWAASGSTLYDYTMGWYRQAPGKERELVAAIRVSGARTFYADSVKGRFTISRDNAKNTVYLQRNSLKPEDTAVYYCAARWYIANPLSPSDYWGQGTQVTVSS”, “low polyreactivity”. As for “QVQLLESGGGLVQAGGILRLSCSASGITFSVYDMGCYRQAPGKERELVASISSGGTSTYYADSVKGRFTISRDNAKNTVYFQMNSLKPEDTAVYYGAAYSYFNGDQYSYDYLGQGTQVTVSS”, the “polyreactivity (PSR sort gate)” value was “low polyreactivity”. As for “QVQLLESGGGLVQAGGSIRLTCAASGRIFYGNTMGWYRQAPGQETELVAAITIGDSTNYADSVKGRFTISRDNAKYTVYLQMNSLKPEDTAVFYCGKRNWWGYYKYDYWGQGSQVTVSS”, the entry is “low polyreactivity”; as for “QVQLLESGGGLVQAGGSLRLSCAASGFIFAKNAMGWYRKAPGKERELVAAISASGGRTYYADSVKGRFTISRDNAKNTVYLQMNSLKPEDTAVYYCAARRDGRSGSYNYWGQGTQVTVSS”, “high polyreactivity”.
